Data: paper doi:10.1101/2021.01.14.426755 (bioRxiv, 2021)

Molecular target: T1, Tfb2 (yeast (endogenous, purified from yeast), UniProt Q02939 1-513)
T1 sequence: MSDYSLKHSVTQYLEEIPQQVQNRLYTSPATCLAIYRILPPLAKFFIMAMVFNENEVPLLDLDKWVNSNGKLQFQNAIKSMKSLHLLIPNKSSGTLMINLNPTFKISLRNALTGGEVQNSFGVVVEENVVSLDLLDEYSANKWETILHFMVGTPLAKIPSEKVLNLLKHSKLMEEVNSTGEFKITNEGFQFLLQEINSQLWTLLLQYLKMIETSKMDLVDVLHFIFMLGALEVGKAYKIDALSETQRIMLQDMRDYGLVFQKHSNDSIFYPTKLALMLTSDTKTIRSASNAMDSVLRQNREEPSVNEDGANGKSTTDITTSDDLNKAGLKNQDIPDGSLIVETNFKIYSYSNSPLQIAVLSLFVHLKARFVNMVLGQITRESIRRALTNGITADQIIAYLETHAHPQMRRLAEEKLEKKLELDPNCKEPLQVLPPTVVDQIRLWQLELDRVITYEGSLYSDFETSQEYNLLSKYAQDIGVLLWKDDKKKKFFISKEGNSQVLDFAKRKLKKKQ
Test: cryo-EM structure

B1: Tfb5 (natural protein)
chain: MARARKGALVQCDPSIKALILQIDAKMSDIVLEELDDTHLLVNPSKVEFVKHELNRLLSKNIYNPMDEEENQ
Question: Does B1 bind?
Answer: Result: binds
